Key:
Type in all cases: biochemical
EphA6 = target: T1, EphA6 (Homo sapiens, UniProt Q9UF33); experiment: TR-FRET kinase assay, EphA6; details: Kinase Concentration 0.5 nM; 50 nM ULight-labeled substrate, 200 micromolar ATP, 2 hours
T1 sequence (Q9UF33 23-1036): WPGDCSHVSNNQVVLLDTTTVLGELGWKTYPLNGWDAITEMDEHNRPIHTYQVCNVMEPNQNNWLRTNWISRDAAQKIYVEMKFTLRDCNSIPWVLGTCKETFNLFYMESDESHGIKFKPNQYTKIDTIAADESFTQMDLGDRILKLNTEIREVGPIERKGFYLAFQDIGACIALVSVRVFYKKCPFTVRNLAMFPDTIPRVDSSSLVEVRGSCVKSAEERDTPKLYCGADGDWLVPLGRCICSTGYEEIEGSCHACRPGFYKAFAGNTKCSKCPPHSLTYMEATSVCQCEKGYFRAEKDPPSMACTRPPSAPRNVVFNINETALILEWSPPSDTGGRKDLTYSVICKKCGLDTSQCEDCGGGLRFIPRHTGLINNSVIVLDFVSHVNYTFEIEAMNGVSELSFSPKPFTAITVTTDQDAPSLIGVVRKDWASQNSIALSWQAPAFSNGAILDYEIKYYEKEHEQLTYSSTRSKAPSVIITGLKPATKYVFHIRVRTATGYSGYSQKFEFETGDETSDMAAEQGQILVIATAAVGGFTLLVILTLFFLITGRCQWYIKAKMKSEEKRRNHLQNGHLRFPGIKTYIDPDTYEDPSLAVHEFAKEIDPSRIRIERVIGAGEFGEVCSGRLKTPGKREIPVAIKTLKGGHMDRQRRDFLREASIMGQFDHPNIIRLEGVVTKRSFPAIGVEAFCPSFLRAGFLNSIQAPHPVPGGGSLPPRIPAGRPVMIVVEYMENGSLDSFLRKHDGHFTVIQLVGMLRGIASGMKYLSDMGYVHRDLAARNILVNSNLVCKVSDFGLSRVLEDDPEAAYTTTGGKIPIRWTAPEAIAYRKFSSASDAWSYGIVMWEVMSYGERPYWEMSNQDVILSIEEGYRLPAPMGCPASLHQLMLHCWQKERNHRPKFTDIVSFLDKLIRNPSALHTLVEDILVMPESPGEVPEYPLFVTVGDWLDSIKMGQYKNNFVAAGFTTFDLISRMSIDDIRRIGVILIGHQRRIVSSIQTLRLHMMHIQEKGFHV
Protocol: (§1) TR-FRET kinase assays are performed under standardized conditions: various individual kinases are incubated with 50 nM of kinase substrate BRB1 labeled with the TR-FRET acceptor dye ULight (PerkinElmer) and 200 micromolar ATP in 10 μL of kinase assay buffer (50 mM HEPES pH7.5, 10 mM MgCl2, 3 mM MnCl2, 1 mM EGTA, 2 mM DTT and 0.01% Tween-20) for 2 hours at room temperature. Reactions are stopped with EDTA, and anti-phospho-tyrosine antibodies (clone PT66) labeled with the TR-FRET europium chelate donor dye are added to a final concentration of 2 nM in a final volume of 20 μL. The TR-FRET signal emitted at 665 nm is read one hour after the addition of antibodies using a TR-FRET plate reader such as the Envision® Multilabel Plate reader (PerkinElmer). The emitted signal at 665 nm is proportional to the extent of peptide phosphorylation, Control reactions indicative of background are performed excluding ATP from the reaction.
(§2) Assay conditions are identical to those used described for FIG. 1.

FLT3 = FLT3 (Homo sapiens, UniProt P36888); experiment: TR-FRET kinase assay, FLT3; details: Kinase Concentration 0.1 nM; 50 nM ULight-labeled substrate, 200 micromolar ATP, 2 hours
Protocol: as §1, §2

MUSK = target: T2, MUSK (Homo sapiens, UniProt O15146); experiment: TR-FRET kinase assay, MUSK; details: Kinase Concentration 1 nM; 50 nM ULight-labeled substrate, 200 micromolar ATP, 2 hours
T2 sequence (O15146 24-869): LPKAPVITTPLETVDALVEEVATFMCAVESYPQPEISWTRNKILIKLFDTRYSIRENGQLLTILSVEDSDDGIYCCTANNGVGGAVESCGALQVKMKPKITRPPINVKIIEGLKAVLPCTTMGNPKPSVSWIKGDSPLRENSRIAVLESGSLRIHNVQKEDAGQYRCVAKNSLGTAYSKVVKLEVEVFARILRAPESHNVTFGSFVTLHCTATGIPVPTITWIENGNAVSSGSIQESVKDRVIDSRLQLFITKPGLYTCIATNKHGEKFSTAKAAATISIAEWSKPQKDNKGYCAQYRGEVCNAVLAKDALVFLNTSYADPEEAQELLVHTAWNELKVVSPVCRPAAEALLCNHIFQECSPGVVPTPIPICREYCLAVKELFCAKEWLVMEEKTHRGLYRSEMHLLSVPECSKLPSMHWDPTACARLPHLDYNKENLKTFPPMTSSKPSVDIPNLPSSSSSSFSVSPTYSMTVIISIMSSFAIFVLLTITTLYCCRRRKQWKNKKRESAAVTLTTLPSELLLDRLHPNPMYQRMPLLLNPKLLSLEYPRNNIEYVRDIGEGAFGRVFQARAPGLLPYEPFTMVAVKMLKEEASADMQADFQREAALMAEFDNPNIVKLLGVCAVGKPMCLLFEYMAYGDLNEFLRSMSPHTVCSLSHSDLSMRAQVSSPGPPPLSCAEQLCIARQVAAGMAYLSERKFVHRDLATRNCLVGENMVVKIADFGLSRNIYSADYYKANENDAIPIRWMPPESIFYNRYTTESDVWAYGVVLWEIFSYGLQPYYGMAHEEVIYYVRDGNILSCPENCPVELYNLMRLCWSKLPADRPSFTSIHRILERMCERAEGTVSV
Protocol: as §1, §2

C AYE AYE AYE K EYA EYA EYA K AYA EYE R (CAYEAYEAYEKEYAEYAEYAKAYAEYER; tyrosine kinase substrate peptide) [BRB1]
Signal to Noise ratio with BRB1 Peptide (EphA6): 5.4 | Signal to Noise ratio with BRB1 Peptide (FLT3): 25.9 | Signal to Noise ratio with BRB1 Peptide (MUSK): 3.1

Reference: patent publication US8242083B2, “Kinase substrates” (PerkinElmer Health Sciences, Inc., priority 2008, dated 2012)
